Measurements as given in article PMC3312813 (Nature chemical biology, 2011).

Tested on: live HeLa cells
Conditions: 8 µM Flu-HBS 3, HeLa cells, 2.5 hours, fixed, Z-section fluorescence microscopy

For CC[C@H](C)[C@H](NC(=O)CN1C/C=C/CCC(=O)N[C@@H](Cc2ccccc2)C(=O)N[C@@H](CCC(=O)O)C1=O)C(=O)N[C@@H](Cc1ccc(O)cc1)C(=O)N[C@@H](CCCNC(=N)N)C(=O)N[C@@H](CC(C)C)C(=O)N[C@@H](CCC(=O)O)C(=O)N[C@@H](CC(C)C)C(=O)N[C@@H](CC(C)C)C(=O)N[C@@H](CCCCN)C(=O)N[C@@H](C)C(=O)N[C@@H](CCC(=O)O)C(=O)N[C@@H](CCC(=O)O)C(=O)N[C@@H](C)C(=O)N[C@@H](CC(N)=O)C(=O)N[C@@H](CCCCNC(=O)c1ccc2c(c1)C(=O)OC21c2ccc(O)cc2Oc2cc(O)ccc21)C(N)=O [Flu-HBS 3], the “Cellular uptake at 4 °C as compared to 37 °C” value was “significantly reduced”.
